Laboratory results reported in the RNAGym collection of RNA variant scans (doi:10.1021/acssynbio.7b00057).

B1: Pistol ribozyme (parent)
chain: GGGUCGUUGUUCCAUAAUCGCGUGGAUAUGGCACGCAAGUUUCUACCGGGCACCGUAAAUGUCCGACUGGAGCCGUUCGGGCGGCUAUAAACAGACCUCAGGCCCGAAGCGUGGCGGCACCUGCCGCCGGUGGUAAAAAAGAUCGGAAGAGCACACGUCU

Variants of: B1
Assay: aptazyme ON/OFF ratio, guanine; higher = stronger switching; co-transcriptional cleavage with and without guanine

Variant | aptazyme ON/OFF ratio
U7A U8G U11A C12U C13U | 1.18
U7A U10G C13G | 1.23
U7C U8C G9C U10A U11A C12G C13G | 1.19
U7G U8G U10C U11G C12U C13G | 1.52
U7C U8A U10G U11A C12U C13U | 1.33
U7G U8G G9C C13A | 1.42
U7C U8A U10C C12G C13U | 1.31
U7C U8G G9C U10C U11A C12G | 1.07
U7A U8G G9A U11C C12G C13A | 1.32
U8A U11A C12G C13A | 1.18
U7G G9C U10A U11C C12U C13A | 1.33
U7C U8C G9C U10G C12U C13U | 1.08
U7C U8G G9U U10C U11A C12G C13G | 1.21
U7A U8G G9U U10A U11C C12A C13A | 1.25
U7A G9U U10G U11G C12U | 1.16
U7C U8C U10A U11G C12U | 1.25
U7G U8A G9A U10A U11G C12U C13G | 1.24
G9U U11A C12G | 1.55
U7G U8G G9U U11A C12A | 1.43
U8A G9A U10C U11A | 1.33
G9A U10G U11G C12G C13G | 1.22

Variant | aptazyme ON/OFF ratio
U7C G9U U10C C12U | 1.09
U7G U11G C12A | 1.11
U8G G9U U10G C12U C13A | 1.03
U8A G9C U10C U11G C13G | 1.05
U7A U8G G9C U10A U11C C12U C13U | 1.23
U7G U8G G9A U10G U11C C12G C13G | 1.13
U8G G9A U11A C13A | 1.14
U7C U8C G9C U10G U11G | 1.09
U7C U8A G9A U10C U11A C12U C13A | 1.17
U7G U8G U10C U11C C12G | 1.18
U7G G9A U11C C12A C13A | 1.1
U8A G9A U10C U11G C12A | 1.03
U7C U8G U11A C12U | 1.15
U8A G9A U10G U11C C12G | 1.2
U7A U8G G9C U10G U11G C13G | 1.21
U7A U8G G9U U10C U11G C12U C13U | 1.53
U7G G9U U10C U11G | 2.9
U7G G9C U10C U11G C12A C13A | 1.09
U7G U8A G9U U10A U11G C12A | 1.06
U7C U8A G9A U10A C12U C13A | 1.15
U7A U8C G9A U11C C12G C13G | 1.07

Variant | aptazyme ON/OFF ratio
U8G G9A U10A U11G C13U | 1.06
U7A U8G G9U U11A C12G C13A | 1.11
U8A G9C U10C C12A C13A | 1.03
U7A U8G G9U U10A U11G C12A C13A | 1.11
U8A G9A U10A U11C C12G C13G | 1.21
U7C U8G C12U | 2.44
U7G U10G U11C C12G C13A | 1.14
U7G U8G G9C U10C U11G C12G | 1.23
U7G U8C G9A U10A U11A C13G | 1.04
U7G U8C G9U U10G U11C C12U C13A | 1.34
U8G G9C U10C U11A C12A | 1.05
U7C U8A G9C U11A | 1.05
U7A U8G U10G C12G C13A | 1.26
U7G U8C G9A U10C U11A C12U C13A | 1.08
U8A U11A C13G | 1.05
U7A U8G G9C U10C U11G C13G | 1.26
U8G U10G U11A C12U C13A | 1.14
U7C U8G G9C U10G U11C C12A C13A | 1.31
U7C U8G G9C U10G U11C C12G | 1.25
U7C G9C U10A U11G C12G C13U | 1.13
U7C U8C G9U U10C C12A C13A | 1.17

Variant | aptazyme ON/OFF ratio
U7C U8C U10A C12U C13G | 1.06
G9U U11A C12G C13A | 1.82
U8G G9U U10C U11G C12U C13A | 1.09
U7C U8A G9C U10A U11G | 1.29
U7A U8A G9U U10A U11G | 1.38
U8A U11G C12U C13G | 1.1
U7C U8A G9A U10G U11G C12G | 1.29
U7G U8C G9A U11A C12A | 1.2
U8A G9U U10G U11G C13A | 1.08
U7C U8G U10A U11C C12U C13G | 1.18
U7G U11A C12G C13G | 1.11
U7G G9U U10C U11C C12A | 1.37
U8C U10G U11C C12A C13A | 1.24
U7G G9U U10G U11G C12U C13U | 1.29
U7G U10C C12A C13G | 1.1
U8A G9A U10A U11A C12A | 1.24
U7C U8C G9U U10C U11C C13A | 1.02
U7G U10A C12A | 1.21
U7A U11A C12A | 1.41
U7A U8A G9U U10A U11A C12U C13U | 1.22
U8A G9U U10C U11A C13U | 1.17
